Data on 5 molecules can be found in patent publication US20040259770A1, “Method for determining leukocyte activation” (Rush University Medical Center, priority 2003, published 2004).

In assay [1] the test system is eosinophils. The experiment in a line: Flow cytometric analysis of binding of lactoferrin by eosinophils. Also noted: species or system human. Here is the method: Eosinophils (10^6 cells) were incubated with or without the indicated concentrations of lactoferrin in 100 microliters of HEPES-HBSS-HSA buffer for 90 minutes at 4° C. The cells were collected by centrifugation at 300 g for 5 minutes at 4° C., and then incubated with 1.5 micrograms FITC-conjugated polyclonal anti-lactoferrin (Sigma Chemical Co.) or FITC-conjugated rabbit IgG (Sigma Chemical Co.) in 25 microliters PBS (pH 7.2) containing 0.1 percent gelatin and 0.1 percent azide (PBS-gel-azide) for 30 minutes on ice. The cells were washed twice in ice-cold PBS-gel-azide and were suspended in PBS-gel-azide buffer containing 1 percent formaldehyde for analysis by flow cytometry. Fluorescence intensity of 10,000 cells in each sample was measured using a FACScan flow cytometer (Becton-Dickinson; San Jose, Calif.).

In assay [2] the test system is lactoferrin receptor on neutrophils. As to conditions: Boxer et al. 1982, cited from earlier work.
Assay [3] concerns eosinophils. As to the kind of experiment: Eosinophil superoxide production (cytochrome c reduction) in protein-coated tissue culture wells. It is filed as cell-based, human. The following applies: 1 to 100 micrograms per milliliter of the protein, 2 hours at 37° C. Here is the method:
Neutrophils were isolated from venous blood of healthy adult volunteers by density gradient centrifugation through lymphocyte separation medium (BioWhittaker; Walkersville, Md.) as described previously (Haskell M. D., et al., Blood 86:4627-4637 (1995)) with one modification. Isotonicity was restored following the brief hypotonic lysis steps by the addition of 2× concentrated Hank's Balanced Salt Solution (HBSS) (Gibco; Grand Island, N.Y.) (without Ca^2+ and Mg^2+) containing 5 mM HEPES, pH 7.4. The cells were suspended in HEPES (10 mM)-buffered HBSS (with Ca^2+ and Mg^2+), pH 7.4, containing 1 milligram per milliliter of human serum albumin (HSA) (Sigma Chemical Co.) (HEPES-HBSS-HSA buffer). Neutrophil purity was routinely greater than 95 percent, with eosinophils representing the remainder of the cells. Eosinophils were isolated from the neutrophil preparations by negative selection (Hansel T. T., et al., J. Immunol. Meth. 145:105-10 (1991)) using anti-CD16 immunomagnetic beads as described by the manufacturer (Miltenyi Biotec, Inc., Auburn, Calif.). The eosinophils were suspended in HEPES-HBSS-HSA buffer. Eosinophil purity was routinely greater than 95 percent as determined by counting Wright-stained cytospin preparations. In some assays, an aliquot of the neutrophil preparation was held on ice for later use.
Superoxide production was measured essentially as described elsewhere (Motegi, Y., and H. Kita, J. Immunol. 161:4340 (1998)). Briefly, wells in a 96-well (flat bottom) tissue culture plate (Corning, Inc.; Corning, N.Y.) were coated with human milk lactoferrin (Sigma Chemical Co.) or human secretory IgA (ICN Biomedical; Aurora, Ohio) by incubation with 50 microliters of the indicated concentrations of the proteins in phosphate buffered saline (PBS) overnight at 4° C. Non-specific protein binding sites were blocked by subsequent incubation with 100 microliters of 25 milligrams per milliliter of HSA in PBS for 2 hours at 37° C., and the tissue culture wells were washed twice with PBS before use. Aliquots (5×10^4 cells) of eosinophils or neutrophils were added to the wells and were incubated in HEPES-HBSS—HSA buffer containing 50 micromolar cytochrome c (Sigma Chemical Co.) for 120 minutes at 37° C. in a Ceres UV900HDi microplate reader (Bio-Tek Instruments, Inc., Winooski, Vt.). Total incubation volume was 0.2 milliliters. Absorbance at 550 nanometers was recorded at 15-minute intervals, and superoxide production was calculated as described previously (Motegi, Y., and H. Kita, J. Immunol. 161:4340 (1998)). Results are expressed as nanomoles superoxide per 10^5 cells after subtraction of spontaneous production, which was measured in tissue culture wells coated only with HSA. GM-CSF (R & D Systems; Minneapolis, Minn.), porcine heparin (Sigma Chemical Co.), or chondroitin sulfate C (Sigma Chemical Co.) was added to the incubation mixtures in some assays as indicated.

Assay [4] addresses lactoferrin receptors on eosinophils. The experiment in a line: Binding of 125I-labeled lactoferrin by eosinophils, Scatchard analysis. Also noted: species or system human. As to conditions: three experiments, 2 hours at room temperature. The protocol: Lactoferrin (100 micrograms) was radioiodinated using IODO-GEN iodination reagent (Pierce; Rockford, Ill.) according to the procedure supplied by the manufacturer. The lactoferrin was incubated with 400 micro Curies Na^125I (PerkinElmer Life Sciences; Boston, Mass.) for 3 min, and the ^125I-labeled lactoferrin was separated from free Na^125I by chromatography through a 5-ml D-Salt dextran desalting column (Pierce) using PBS as the elution buffer. Protein concentration of the ^125I-labeled lactoferrin was measured by the BCA assay (Pierce). Specific activity of the ^125I-labeled lactoferrin was 34,800 cpm/pmole. […] Binding of ^125I-labeled lactoferrin by eosinophils was determined using a modification of previously described protocols for eosinophils. Motegi et al. J. Immunol. 161:4340 (1998); Lopez et al., J. Biol. Chem. 266:24741 (1991). Eosinophils (2×10^6) were incubated with the indicated concentrations of ^125I-labeled lactoferrin alone and in the presence of excess unlabeled lactoferrin in RPMI 1640 containing 20 mM HEPES, 0.5% BSA, and 0.1% sodium azide (Lopez et al., J. Biol. Chem. 266:24741 (1991)) in siliconized glass tubes for 2 hr at room temperature on a circular oscillating platform. In some experiments as indicated, binding was measured in the presence of excess unlabeled transferrin. Total reaction volume was 0.15 ml. Reactions were stopped by centrifugation (1300 g for 4 min) of the reaction mixture through 200 microliters FCS in a 1.5 ml microcentrifuge tube. The supernatant was removed by careful aspiration, and after quick-freezing on dry ice the tip of the tube containing the cell pellet was excised and the radioactivity was measured by gamma counting (Beckman Coulter Gamma 5500B). Specific binding was determined as the difference between total binding and binding in the presence of the excess unlabeled lactoferrin. Binding constants were determined by Scatchard analysis (Scatchard, G., Ann. N.Y. Acad. Sci. 51:660 (1949)).

Where two headings read alike, the source gives them in different places.

B1: lactoferrin: 78-80 kilodalton multifunctional glycoprotein of external secretions and neutrophil secondary granules (protein, UniProt P02788 20-710, looked up)
Lactotransferrin: GRRRSVQWCAVSQPEATKCFQWQRNMRKVRGPPVSCIKRDSPIQCIQAIAENRADAVTLDGGFIYEAGLAPYKLRPVAAEVYGTERQPRTHYYAVAVVKKGGSFQLNELQGLKSCHTGLRRTAGWNVPIGTLRPFLNWTGPPEPIEAAVARFFSASCVPGADKGQFPNLCRLCAGTGENKCAFSSQEPYFSYSGAFKCLRDGAGDVAFIRESTVFEDLSDEAERDEYELLCPDNTRKPVDKFKDCHLARVPSHAVVARSVNGKEDAIWNLLRQAQEKFGKDKSPKFQLFGSPSGQKDLLFKDSAIGFSRVPPRIDSGLYLGSGYFTAIQNLRKSEEEVAARRARVVWCAVGEQELRKCNQWSGLSEGSVTCSSASTTEDCIALVLKGEADAMSLDGGYVYTAGKCGLVPVLAENYKSQQSSDPDPNCVDRPVEGYLAVAVVRRSDTSLTWNSVKGKKSCHTAVDRTAGWNIPMGLLFNQTGSCKFDEYFSQSCAPGSDPRSNLCALCIGDEQGENKCVPNSNERYYGYTGAFRCLAENAGDVAFVKDVTVLQNTDGNNNEAWAKDLKLADFALLCLDGKRKPVTEARSCHLAMAPNHAVVSRMDKVERLKQVLLHQQAKFGRNGSDCPDKFCLFQSETKNLLFNDNTECLARLHGKTTYEKYLGPQYVAGITNLKKCSTSPLLEACEFLRK
For B1, the “fluorescence intensity with FITC-conjugated anti-lactoferrin antibody” value in assay [1] (30 micrograms per milliliter soluble lactoferrin, 90 minutes at 4° C) is “marked increase in the fluorescence intensity”; in assay [1] (100 micrograms per milliliter lactoferrin), “did not produce any further increase in the level of fluorescence intensity”. For the same molecule, in assay [1] (flow cytometry analysis, approximately 0.4 micromolar), the “lactoferrin concentration at which binding by eosinophils is saturated” value came out at 30 micrograms per milliliter. Besides, the Kd in assay [2] (read-out: dissociation constant of lactoferrin receptor described for neutrophils) and in assay [2] (read-out: dissociation constant of lactoferrin receptor described on neutrophils) was about 0.2 µM each time.

B2: soluble lactoferrin: human milk lactoferrin added in solution to HSA-coated wells (protein, UniProt P02788 20-710, looked up)
Lactotransferrin: B1 Lactotransferrin
Regarding B2, the “stimulation of eosinophil superoxide production (in words)” value (“stimulation” below) in assay [3] is listed as “stimulated minimal superoxide production”.

B3: mock-deglycosylated lactoferrin: lactoferrin given the same treatment as deglycosylated lactoferrin but in the absence of PNGase F (protein, UniProt P02788 20-710, looked up)
Lactotransferrin: B1 Lactotransferrin
modifications: mock-deglycosylated
Turning to B3, the “stimulation” value in assay [3] was “did not differ from that of control lactoferrin”.

B4: ^125I-labeled lactoferrin: lactoferrin radioiodinated with IODO-GEN reagent, 34,800 cpm/pmole (protein, UniProt P02788 20-710, looked up)
Lactotransferrin: B1 Lactotransferrin
modifications: 125I label
notes: lactoferrin radioiodinated with IODO-GEN reagent, 34,800 cpm/pmole
On to B4, for which the Kd in assay [4] (mean+/−SE, listed as 125I-lactoferrin, read-out: KD, first class of receptors) was about 0.047 µM; in assay [4] (mean+/−SE, read-out: KD, first class of receptors) it was 0.047 µM; in assay [4] (read-out: KD, second class of receptors) it was about 0.26 µM. Further, in assay [3], the “stimulation” value is “retained full ability to stimulate eosinophil superoxide production”.

B5: immobilized deglycosylated lactoferrin: lactoferrin incubated with peptide N-glycosidase F for 72 hours at 37° C (protein, UniProt P02788 20-710, looked up)
Lactotransferrin: B1 Lactotransferrin
modifications: deglycosylated with PNGase F
notes: lactoferrin incubated with peptide N-glycosidase F for 72 hours at 37° C
As for B5, the “stimulation” value in assay [3] is “stimulated superoxide production to the same extent and in the same concentration-dependent manner as immobilized mock-deglycosylated lactoferrin”.
